# Earlier results, collected in publication PMC2174977.
# Molecular target: chemoreceptor (Tar) (Escherichia coli) (UniProt P07017)
# Chain of UniProt P07017 (P07017 whole entry): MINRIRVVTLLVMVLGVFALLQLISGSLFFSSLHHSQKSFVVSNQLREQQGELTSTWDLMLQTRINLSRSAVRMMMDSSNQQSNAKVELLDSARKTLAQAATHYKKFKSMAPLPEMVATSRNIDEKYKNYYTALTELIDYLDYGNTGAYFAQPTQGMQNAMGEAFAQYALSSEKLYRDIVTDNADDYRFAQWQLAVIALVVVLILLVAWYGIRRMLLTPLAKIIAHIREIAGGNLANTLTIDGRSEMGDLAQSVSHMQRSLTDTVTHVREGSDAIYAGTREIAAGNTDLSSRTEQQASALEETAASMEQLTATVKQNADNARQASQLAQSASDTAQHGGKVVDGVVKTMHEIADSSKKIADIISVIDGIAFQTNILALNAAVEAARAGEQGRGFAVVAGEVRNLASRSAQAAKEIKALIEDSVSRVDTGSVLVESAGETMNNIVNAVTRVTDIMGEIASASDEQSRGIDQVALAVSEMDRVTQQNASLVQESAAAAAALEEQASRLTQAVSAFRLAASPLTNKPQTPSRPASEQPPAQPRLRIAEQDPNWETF
substance,measurement,value
CheR (from UniProt P07364),Kd,11 µM
